# Experimental data reported in patent US20210054047A1, “NOVEL ANTICANCER FUSION PROTEIN AND USE THEREOF” (KOREA INSTITUTE OF SCIENCE AND TECHNOLOGY, priority 2018, published 2021).
# Key:
# HT29 cells = assay: Annexin V early apoptosis flow cytometry, HT29; type: cell-based, human; conditions: HT29, low concentrations, 24 hours
# Experimental: HepG2, HT29, or MCF7 cells (1.5×10^4) were cultured in a 96-well plate for 1 day, after which DOX-TTPNs, DOX-FTNs, free DOX, empty TTPNs, or buffer was added to each well. After 24 hours, cell viability was measured using a CCK-8 assay (Dojindo Molecular Technologies) according to the manufacturer's instructions. For analysis of early apoptosis, HT29 cells in 6-18 well culture plate were treated with DOX-TTPNs, free DOX, empty TTPNs, or buffer for 24 hours. Thereafter, cells were incubated with Alexa Fluor 488-conjugated annexin V (Invitrogen) 20 for 15 minutes, then analyzed using an Accuri™ C6 flow cytometer (BD Biosciences) and FlowJo 21 v10 software.
# HepG2 tumors = conditions: mouse, in vivo, iv
# Experimental: The delivery efficiency of TTPN to the tumor microenvironment was investigated by performing an in vivo biodistribution study (n=4 mice/group) of Cy5.5-labeled TTPN using the eXplore Optix System (Advanced Research Technologies Inc., USA). […] Free-Cy5.5 was separated by ultrafiltration (Amicon Ultra 100 K, Millipore), and the fluorescence intensity of the Cy5.5-labeled protein was measured using a fluorescence microplate reader (Infinite M200 Pro, TECAN, Austria). […] The fluorescence intensity of all samples was adjusted to the same value based on the data obtained using a fluorescence microplate reader. To analyze the fluorescence intensity of tumors, the Analysis Workstation software (Advanced Research Technologies Inc.) was used to calculate total photons per […] per steradian (p/s/cm^2/sr) in the region of interest (ROI). At 24 hours post-injection, the mice were sacrificed, and tumors and major organs including liver, lung, spleen, kidney and heart were excised and analyzed in the same manner as described above.
# [1] = In vitro stability (soluble protein in buffer over time); type: physicochemical
# Experimental: The stability of TTPN, DOX-TTPN and mTRAIL was investigated by measuring changes of concentration in a suitable buffer solution. […] At predetermined times, aggregated proteins were collected at 13,000 rpm for 10 minutes, and the concentration of soluble DOX-TTPN and TTPN in the supernatant was measured using absorbance in UV280.
# HEK293T cells = assay: Cell viability, CCK-8 assay, HEK293T normal cells; type: cell-based; conditions: HEK293T normal cells (FIG. 18)
# Experimental: After culturing for 24 hours, cell viability was measured using a cell counting kit (CCK)-8 assay (Dojindo Molecular Technologies, Gaithersburg, Md.). The plate was then read with an absorbance microplate reader (Spectramax 340, Molecular Devices Corporation) at a wavelength of 450 nm and 50% effective by regression analysis using SigmaPlot software (Systat Software, Inc., San Jose, Calif.). The concentration value was calculated.
# DR5 = molecular target: T1, DR5 (Homo sapiens, UniProt O14763); assay: SPR binding to immobilized DR5-Fc; conditions: 25° C.
# T1 construct: purchased R&D systems 631-T2-100
# Experimental: Binding experiments of TTPN and mTRAIL to TRAIL receptors DR4 and DR5 were analyzed at 25° C. using a surface plasmon resonance apparatus (SR7500 DC, Reichert Inc., NY, USA). DR4 and DR5-fc chimeric proteins (R&D systems 347-DR-100, 631-T2-100) were immobilized on the surface of the Planar Protein A sensor chip (Reichert, 13206069) and the receptors were coated at a level of 300 to 500 resonance units. SPR kinetic titrations were performed by adding 250 μl of TTPN and mTRAIL with different concentrations in the range of 1.56 to 400 nM and 0.1 to 25.6 μM, respectively, increasing by four times. Each analyte was run at 50 μL/min using running and sample buffer (0.5 M Tris-HCl (pH 7.4), 150 mM NaCl, 0.005% Tween 20), and binding of the ligand to the receptor was performed and monitored in real time. For titration sensorgrams, a simple 1:1 Langmuir interaction model (A+B↔AB) was applied using the data analysis program Scrubber 2.0 (BioLogic Software, Australia, and KaleidaGraph Software, Australia) and CLAMP software.
# The affinity KD was determined from the formula of KD=kd/ka. Results are based on representative sensorgrams obtained from saturation binding reactions averaged over at least three independent runs of SPR measurements (FIG. 31).
# [2] = Transmission electron microscopy (TEM) size; type: physicochemical
# Experimental: TEM analyses of TTPN and wtFTN were imaged by bio transmission electron microscopy (Hitachi). […] The hydrodynamic sizes of TTPN-DOX and TTPN were analyzed by dynamic light scattering (DLS) using a Zetasizer Nano ZS system (Malvern Instruments, Ltd., UK), as previously described (Zidi et al., Med. Oncol. 2010, 27(2): 185-198, 2010).
# HT29 tumor = assay: Antitumor efficacy, HT29 xenograft; type: in vivo, mouse; conditions: i.v. five times every 2 days, DOX-TTPNs 30 mg/kg, DOX 0.4 mg/kg, DOX-FTNs 15 mg/kg, empty TTPNs 30 mg/kg
# Experimental: To this end, HT29 cells were implanted in mice, and after tumor volumes reached approximately 80˜100 mm^3, mice were intravenously injected with 30 mg/kg of DOX-TTPNs (equivalent to a DOX dose of 0.4 mg/kg), 0.4 mg/kg of DOX, 15 mg/kg of DOX-FTNs (equivalent to the number of moles of ferritin in a dose of TTPNs), or 30 mg/kg of empty TTPNs (equivalent to the number of moles of TRAIL in a dose of TTPNs) five times every 2 days, respectively.
# HepG2 tumor = assay: TUNEL analysis of HepG2 tumor tissue; type: in vivo, mouse; conditions: 15th day after first injection
# Text: In the evaluation of the anti-tumor effect of the present invention, BALB/c nude male mice (6-7 weeks old) were used as an animal model. Particularly, HT29 cells (5×10^6) and HepG2 cells (5×10^6) were subcutaneously inoculated into the left dorsal flank of BALB/c nude mice, respectively. After a volume of tumors reached ˜80-100 mm^3, mice were randomly divided into the 14 following five treatment groups (6 mice/group); DOX-TTPNs, DOX-FTNs, free DOX, empty TTPNs, and buffer. Mice were intravenously injected five times, once every 2 days, and volume of tumors was determined as 1/2(Length×Width^2). Apoptotic cell death in tumor tissues was analyzed using TUNEL staining (In situ Cell Death Detection kit; Roche), and cells were stained with DAPI (4′,6-diamidino-2-phenylindole), as previously described (Kih et al., Biomaterials 180: 67-77, 2018). Apoptotic cells were visualized under a Nikon Eclipse Ti microscope (Nikon) and quantified as the number of TUNEL-positive cells per total number of cells using ImageJ software. […]
# In addition, to investigate whether tumor growth inhibition by TTPN is induced by apoptosis-inducing activity on tumor cells, tumor tissues from the treated mice were analyzed. On the 15th day after the first injection, mice were euthanized, and apoptosis of tumor tissues was analyzed using terminal deoxynucleotidyl transferase dUTP nick end labeling (TUNEL) staining.
# [3] = Dynamic light scattering (DLS) size; type: physicochemical
# T1 sequence (O14763 with tags, fused parts or gaps limits assumed): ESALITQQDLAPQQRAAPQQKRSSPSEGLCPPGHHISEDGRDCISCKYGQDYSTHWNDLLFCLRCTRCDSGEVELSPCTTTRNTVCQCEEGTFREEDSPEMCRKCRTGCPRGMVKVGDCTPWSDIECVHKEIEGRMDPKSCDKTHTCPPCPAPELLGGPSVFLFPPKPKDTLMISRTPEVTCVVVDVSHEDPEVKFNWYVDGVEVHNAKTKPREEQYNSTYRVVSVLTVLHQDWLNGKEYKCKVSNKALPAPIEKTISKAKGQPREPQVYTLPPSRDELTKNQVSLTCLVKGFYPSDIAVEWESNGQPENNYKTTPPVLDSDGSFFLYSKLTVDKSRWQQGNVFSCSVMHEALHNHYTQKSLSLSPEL
substance,measurement,setting,value
TTPN: protein nanocage presenting TRAIL as natural-like homo-trimers; TRAIL 95-281 fused by linker peptide to human ferritin heavy chain,induction of early apoptosis,HT29 cells,ineffective in inducing apoptosis
same,fluorescence intensity of tumors,HepG2 tumors,higher than that of wtFTN and mTRAIL
same,stability in solution,[1]; 15 mg/mL in PBS buffer for 24 hours (FIG. 15),remarkably improved stability
same,amount maintained in the soluble form,"[1]; after 1 month, 10 mg/mL (FIG. 16)",more than 90%
same,apoptosis,HEK293T cells,low apoptosis rate
same,ka,DR5,6.62 (±4.19) · 10^4 M^−1 · S^−1
same,kd,DR5,1.49 (±1.13) · 10^−5 s^−1
same,average size (TEM),[2],24-28 nm
same,decrease of tumor volumes,HT29 tumor,no significant tumor-inhibition effect
same,TUNEL-positive tumor cells,HepG2 tumor,84.4%
same,average size (DLS),[3],25.85 nm
